Measured values taken from patent US20120207673A1.

Molecular target: protein A (UniProt P38507)
Test: phage ELISA on coated protein A; heat/cool assay, % of untreated sample

DP47 VH with CDR2 of HEL4, sequence (VH): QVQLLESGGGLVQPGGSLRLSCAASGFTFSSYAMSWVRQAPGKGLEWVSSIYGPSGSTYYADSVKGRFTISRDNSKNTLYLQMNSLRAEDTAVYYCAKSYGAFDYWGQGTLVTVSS

Substance | Retained binding to protein A
DP47 VH SYA31-33DED | 67%

Molecular target: protein A (UniProt P38507)
Test: phage ELISA on coated protein A; heat/cool assay, % of untreated sample (n = 2)

Retained binding to protein A (%) | Substance
52% | DP47 VH SA_31/33_DD
64% | DP47 VH YA_32/33_DD
62% | DP47 VH SY_31/32_DD
66% | DP47 VH SYA_31-33_DDD
50% | DP47 VH SY_31/32_DE
59% | DP47 VH YA_32/33_ED

Substance | Retained binding to protein A (%)
DP47 VH SYA31-33DED | 69%

Molecular target: protein A (UniProt P38507)
Test: phage ELISA on coated protein A; signal after 80 C 10 min then 4 C 10 min as % of the untreated sample (heat/cool assay)

Substance | Retained binding to protein A
DP47 VH with CDR2 of HEL4 | 4%
DP47 VH with CDR3 of HEL4 | 3%
